# Patent US20230312730A1 (ATYR PHARMA, published 2023)
# Residue numbers refer to the chain shown, from its start. Names may count otherwise. “And” between values parts separate entries of the source, which are not always exact repeats. Equal entries are not always repeated.
# T1: human NRP2 variant 2 (NM_003872) over-expressed on Expi293-hNRP2 clonal cells (human, UniProt O60462 23-931)
# T1 sequence: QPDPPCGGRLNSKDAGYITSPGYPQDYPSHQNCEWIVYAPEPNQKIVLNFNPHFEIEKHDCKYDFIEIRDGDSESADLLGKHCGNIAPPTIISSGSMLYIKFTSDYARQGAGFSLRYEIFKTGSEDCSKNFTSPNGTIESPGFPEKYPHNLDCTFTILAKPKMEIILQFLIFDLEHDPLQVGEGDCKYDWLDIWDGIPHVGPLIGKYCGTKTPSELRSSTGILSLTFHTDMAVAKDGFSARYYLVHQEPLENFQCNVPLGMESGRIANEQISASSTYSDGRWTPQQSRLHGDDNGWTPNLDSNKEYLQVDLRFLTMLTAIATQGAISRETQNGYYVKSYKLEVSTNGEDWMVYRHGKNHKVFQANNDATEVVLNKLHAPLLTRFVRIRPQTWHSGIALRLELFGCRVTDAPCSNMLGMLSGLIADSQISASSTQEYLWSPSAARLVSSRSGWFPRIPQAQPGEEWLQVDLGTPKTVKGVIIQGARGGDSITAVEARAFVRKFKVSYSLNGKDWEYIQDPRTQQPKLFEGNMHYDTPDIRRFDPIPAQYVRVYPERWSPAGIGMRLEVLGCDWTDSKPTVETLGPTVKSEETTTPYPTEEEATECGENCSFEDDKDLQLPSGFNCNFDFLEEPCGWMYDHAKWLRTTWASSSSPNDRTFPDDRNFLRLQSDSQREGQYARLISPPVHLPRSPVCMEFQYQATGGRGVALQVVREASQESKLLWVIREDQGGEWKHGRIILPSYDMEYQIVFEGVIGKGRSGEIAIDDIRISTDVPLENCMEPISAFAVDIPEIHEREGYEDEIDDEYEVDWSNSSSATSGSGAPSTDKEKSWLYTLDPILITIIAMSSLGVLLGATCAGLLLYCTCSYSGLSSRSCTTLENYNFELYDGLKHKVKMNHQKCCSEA
# B1: recombinant human VEGF-C (R&D Systems #9199-VC) (ligand, UniProt P49767 103-227, looked up)
# chain: TEETIKFAAAHYNTEILKSIDNEWRKTQCMPREVCIDVGKEFGVATNTFFKPPCVSVYRCGGCCNSEGLQCMNTSTSYLSKTLFEITVPLSQGPKPVTISFANHTSCRCMSKLDVYRQVHSIIRR
# notes: Bought reagent
# B2: Human SEMA3F-Fc (R&D Systems #9878-S3) (Fc fusion, UniProt Q13275 19-779, looked up)
# chain: SFPTQDHLPATPRVRLSFKELKATGTAHFFNFLLNTTDYRILLKDEDHDRMYVGSKDYVLSLDLHDINREPLIIHWAASPQRIEECVLSGKDVNGECGNFVRLIQPWNRTHLYVCGTGAYNPMCTYVNRGRRAQATPWTQTQAVRGRGSRATDGALRPMPTAPRQDYIFYLEPERLESGKGKCPYDPKLDTASALINEELYAGVYIDFMGTDAAIFRTLGKQTAMRTDQYNSRWLNDPSFIHAELIPDSAERNDDKLYFFFRERSAEAPQSPAVYARIGRICLNDDGGHCCLVNKWSTFLKARLVCSVPGEDGIETHFDELQDVFVQQTQDVRNPVIYAVFTSSGSVFRGSAVCVYSMADIRMVFNGPFAHKEGPNYQWMPFSGKMPYPRPGTCPGGTFTPSMKSTKDYPDEVINFMRSHPLMYQAVYPLQRRPLVVRTGAPYRLTTIAVDQVDAADGRYEVLFLGTDRGTVQKVIVLPKDDQELEELMLEEVEVFKDPAPVKTMTISSKRQQLYVASAVGVTHLSLHRCQAYGAACADCCLARDPYCAWDGQACSRYTASSKRRSRRQDVRHGNPIRQCRGFNSNANKNAVESVQYGVAGSAAFLECQPRSPQATVKWLFQRDPGDRRREIRAEDRFLRTEQGLLLRALQLSDRGLYSCTATENNFKHVVTRVQLHVLGRDAVHAALFPPLSMSAPPPPGAGPPTPPYQELAQLLAQPEVGLIHQYCQGYWRHVPPSPREAPGAPRSPEPQDQKKPRNRR
# notes: Bought reagent; not shown: Fc of the bought chimera (detected with anti-human Fc)
# B3: Sema3F-p95m (Myc-tagged Sema3F-p95 R583A R586A-1359) (ligand, UniProt Q13275 19-779, looked up)
# chain: B2 chain with R565A, R568A
# notes: not shown: Myc tag
# What was measured:
# [1] = biological target: human NRP2 endogenously expressed on cell lines (human) (UniProt O60462); assay: flow cytometry on A549 WT cells
# [2] = biological target: T1, human NRP2 variant 2 (NM_003872) …; assay: flow cytometry on Expi293-hNRP2 cells, 0.05-100 nM, rabbit anti-VEGF-C detection
# Method: (§1) To assess the ability of the anti-NRP2 antibodies to displace the binding of VEGF-C, Semaphorin 3F and HRS polypeptides, flow cytometry was used. Binding of recombinant human VEGF-C (R&D Cat#9199-VC-025, untagged), Sema3F-Fc (R&D Cat#9878-S3-025, Fc chimera protein) or Sema3F-p95m (prepared In-house), Myc-tagged Sema3F-p95 R583A R586A-1359) to Expi293-hNRP2 cells over expressing human NRP2 were determined by immunostaining assay as described in Example 4. Studies were conducted with cells incubated with each of these proteins at 0.05 - 100 nM at 3-fold dilutions on ice for 1 hour. Cells were then washed and stained with secondary and/or detection antibodies as described previously. […] Sema3F-Fc was detected by a Cy3-conjugated goat anti-human Fc IgG (Jackson ImmunoResearch Cat#109165098). Sema3F-p95m was detected by an AF555-conjugated anti-Myc antibody (ThermoFisher Cat#MA1980A555).
# (§2) Binding curves were fit and EC₅₀ values determined as described above. VEGF-C was determined to bind to Expi293-hNRP2 cells with an EC₅₀ of 0.6 nM. Sema3F-Fc was determined to bind to Expi293-hNRP2 cells with an EC₅₀ of ^{~}8.2 nM, and Sema3F-p95m bound to Expi293-hNRP2 cells with an with EC₅₀ of 5.7 nM.
# [3] = biological target: T1, human NRP2 variant 2 (NM_003872) …; assay: flow cytometry on Expi293-hNRP2 cells, 0.05-100 nM, anti-human Fc detection
# Method: as §1, §2
# [4] = biological target: T1, human NRP2 variant 2 (NM_003872) …; assay: flow cytometry on Expi293-hNRP2 cells, 0.05-100 nM, anti-Myc detection
# Method: as §1, §2
molecule,measurement,setting,value
C9-AF647 Santa Cruz Biotech anti-NRP2 antibody,Fold change of a-NRP2 to Ctl (FC),[1],2.6 fold and 1.8 fold
C9-PE Santa Cruz Biotech anti-NRP2 antibody,Fold change of a-NRP2 to Ctl (FC),[1],6 fold
B1,EC50,[2],0.6 nM
B2,EC50,[3],~8.2 nM
B3,EC50,[4],5.7 nM
